Data published in PMC6856630, “Structures of neurexophilin–neurexin complexes reveal a regulatory mechanism of alternative splicing” (The EMBO Journal, 2019).
Changes are numbered by the printed parent chain. Names may count otherwise. “And” between values parts separate entries of the source, which are not always exact repeats. Identical values can stand only once.

B1: Nxph1-2XFLAG-His (mature rat neurexophilin-1, 118-271, glycosylated) (ligand, UniProt Q63366 118-271, looked up)
chain: MFGWGDFHSNIKTVKLNLLITGKIVDHGNGTFSVYFRHNSTGQGNVSVSLVPPTKIVEFDLAQQTVIDAKDSKSFNCRIEYEKVDKATKNTLCNYDPSKTCYQEQTQSHVSWLCSKPFKVICIYISFYSTDYKLVQKVCPDYNYHSDTPYFPSG
modifications: N-linked glycans at N146, N156 and N162
notes: Neurexophilin-1, rat, mature form, residues 118-271; Expressed with an Igκ signal peptide at the N-terminus; HRV 3C site before the tags, not cut for the biochemical studies; source: 293F cells, BacMam expression system, secreted; purification of Nxph1 alone not described; not shown: 2xFLAG, C-terminal, kept; His6, C-terminal, kept
B2: Nxph1^3ND (mature rat neurexophilin-1, 118-271, N146D/N156D/N162D) (ligand, UniProt Q63366 118-271, looked up)
chain: B1 chain with N29D, N39D, N45D
notes: Neurexophilin-1, rat, mature form, residues 118-271, the three N-linked glycosylation sites mutated to aspartic acid; Expressed with an Igκ signal peptide at the N-terminus; tags removed with HRV 3C protease; also called Nxph1 (in the crystal structures); source: HEK293S GnTI- cells, BacMam, co-expressed with LNS2, complex purified (HisTrap, StrepTrap, 3C cleavage, Mono Q); not shown: 2xFLAG, …
B3: Nrxn3 LNS2^SS2A+, AviTag-His, biotinylated (BLI) (domain or fragment)
chain: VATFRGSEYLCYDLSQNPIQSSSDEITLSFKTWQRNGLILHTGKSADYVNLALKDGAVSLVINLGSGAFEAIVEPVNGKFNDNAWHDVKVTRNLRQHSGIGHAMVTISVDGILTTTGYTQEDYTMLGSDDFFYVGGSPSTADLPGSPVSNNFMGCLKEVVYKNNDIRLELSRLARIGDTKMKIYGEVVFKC
modifications: biotin on the AviTag (BirA)
B4: Nrxn1 LNS2^SS2−, AviTag-His, biotinylated (BLI) (domain or fragment)
chain: not shown
modifications: biotin on the AviTag (BirA)
notes: numbers count on: UniProt Q9CS84-1 (isoform 1a); Igκ signal peptide at the N-terminus; source: 293F cells, transfected, secreted, purified (Ni-NTA, BirA biotinylation, Superdex Increase 200); not shown: AviTag, C-terminal, kept; His6, C-terminal, kept
B5: Nrxn1 LNS2^SS2− (I401Q), AviTag-His, biotinylated (BLI) (domain or fragment)
chain: not shown
modifications: biotin on the AviTag (BirA)
notes: as for B4
B6: Nxph3-2XFLAG-His (rat neurexophilin-3, 50-252) (ligand, UniProt Q9Z2N5 50-252, looked up)
chain: RGHISPKSRPLANSTLLGLLAPPGEVWGILGQPPNRPKQSPLPSTKVKKIFGWGDFYSNIKTVALNLLVTGKIVDHGNGTFSVHFRHNATGQGNISISLVPPSKAVEFHQEQQIFIEAKASKIFNCRMEWEKVERGRRTSLCTHDPAKICSRDHAQSSATWSCSQPFKIVCVYIAFYSTDYRLVQKVCPDYNYHSDTPYYPSG
modifications: glycans (sites not given)
notes: Neurexophilin-3, rat, residues 50-252; Expressed with an Igκ signal peptide at the N-terminus; HRV 3C site before the tags, not cut; source: 293F cells, BacMam expression system, secreted; purification not described; not shown: 2xFLAG, C-terminal, kept; His6, C-terminal, kept

Experiments:
[1] = target: the molecule itself; test: SEC-MALS + other: SEC-SAXS; Nxph1 alone; SEC-MALS on Superdex 200 10/300 in PBS pH 7.4, SEC-SAXS on Superdex Increase 200 3.2/300
[2] = target: B4; test: BLI; Octet RED384; biotinylated neurexin LNS2 on streptavidin tips, Nxph in solution; 25°C, PBS pH 7.4, 50 nM TCEP, 1% BSA; global fit, double reference subtraction; settings: both partners purified
[3] = target: B5; test: as above; settings: both partners purified
[4] = target: T1, Nrxn1 LNS2^SS2A+, AviTag-His, biotinylated (BLI) (mouse, UniProt Q9CS84-1 283-480, 283–386; 394–480, biotin on the AviTag (BirA)); test: as above; settings: both partners purified
T1 construct: numbers count on: UniProt Q9CS84-1 (isoform 1a); Igκ signal peptide at the N-terminus; source: 293F cells, transfected, secreted, purified (Ni-NTA, BirA biotinylation, Superdex Increase 200); not shown: AviTag, C-terminal, kept; His6, C-terminal, kept
T1 sequence (Q9CS84 other isoform, or with tags, fused parts or gaps 283–386/394–480 | 283–386/394–480): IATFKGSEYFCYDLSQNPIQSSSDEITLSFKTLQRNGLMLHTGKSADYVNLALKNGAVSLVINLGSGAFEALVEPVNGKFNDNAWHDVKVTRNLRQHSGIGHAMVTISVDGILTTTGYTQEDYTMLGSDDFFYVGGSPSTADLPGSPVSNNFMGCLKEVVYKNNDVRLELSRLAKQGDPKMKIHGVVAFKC

[5] = target: T2, Nrxn1 LNS2^SS2A+ (I401Q), AviTag-His, biotinylated (BLI) (mouse, UniProt Q9CS84-1 283-480, 283–386; 394–480 | I401Q, biotin on the AviTag (BirA)); test: as above; settings: both partners purified
T2 construct: numbers count on: UniProt Q9CS84-1 (isoform 1a); Igκ signal peptide at the N-terminus; source: 293F cells, transfected, secreted, purified (Ni-NTA, BirA biotinylation, Superdex Increase 200); not shown: AviTag, C-terminal, kept; His6, C-terminal, kept
T2 sequence (Q9CS84 other isoform, or with tags, fused parts or gaps with the stated changes): as the sequence (Q9CS84 other isoform, or with tags, fused parts or gaps 283–386/394–480 | 283–386/394–480) above, with I112Q counted along it

[6] = target: T3, Nrxn1 LNS2^SS2− (C293A), crystallographic construct (mouse, UniProt Q9CS84-1 283-480, 283–378; 394–480 | C293A); test: SEC-MALS; Superdex 200 10/300, 0.5 ml/min, PBS pH 7.4; settings: both partners purified
T3 construct: Neurexin-1 alpha, mouse, LNS2 domain without insert in splice site 2, residues 283-378 joined to 394-480; numbers count on: UniProt Q9CS84-1 (isoform 1a); Expressed with an Igκ signal peptide at the N-terminus; source: HEK293S GnTI- cells, BacMam, co-expressed with Nxph1^3ND, complex purified (HisTrap, StrepTrap, 3C cleavage, Mono Q); not shown: Twin-Strep, C-terminal, cleaved
T3 sequence (Q9CS84 other isoform, or with tags, fused parts or gaps with the stated changes): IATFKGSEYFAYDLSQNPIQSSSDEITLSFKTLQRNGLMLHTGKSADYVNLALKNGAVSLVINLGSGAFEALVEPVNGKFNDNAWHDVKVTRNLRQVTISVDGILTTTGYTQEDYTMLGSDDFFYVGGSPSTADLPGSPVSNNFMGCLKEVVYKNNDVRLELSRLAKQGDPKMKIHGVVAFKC

[7] = target: T4, Nrxn1 LNS2^SS2A+, crystallographic construct (mouse, UniProt Q9CS84-1 283-480, 283–386; 394–480); test: as above; settings: both partners purified
T4 construct: Neurexin-1 alpha, mouse, LNS2 domain with the eight-residue SS2A insert (379-386), residues 283-386 joined to 394-480; numbers count on: UniProt Q9CS84-1 (isoform 1a); Expressed with an Igκ signal peptide at the N-terminus; not shown: Twin-Strep, C-terminal, cleaved
T4 sequence (Q9CS84 other isoform, or with tags, fused parts or gaps 283–386/394–480 | 283–386/394–480): as the sequence (Q9CS84 other isoform, or with tags, fused parts or gaps 283–386/394–480 | 283–386/394–480) above

[8] = target: B1; test: BLI; Octet RED384; biotinylated neurexin LNS2 on streptavidin tips, Nxph in solution; 25°C, PBS pH 7.4, 50 nM TCEP, 1% BSA; global fit, double reference subtraction; settings: both partners purified
[9] = target: B6; test: as above; settings: both partners purified
[10] = target: the molecule itself; test: SEC-MALS; Superdex 200 10/300, 0.5 ml/min, PBS pH 7.4

Q: B1 was tested. Which “stoichiometry N” value [1] did it give?
A: Its value is 2 and 4.

Q: And the Kd [2]?
A: The Kd was 299 nM.

Q: And the koff [2]?
A: The koff was 0.00012 s⁻¹.

Q: What about the kon [2] of the same binder?
A: Its kon is 399 M⁻¹ s⁻¹.

Q: And the Kd [3]?
A: Its Kd is 16400 nM.

Q: And the koff [3]?
A: Its koff is 0.0034 s⁻¹.

Q: What about the kon [3] of the same binder?
A: The kon was 220 M⁻¹ s⁻¹.

Q: What about the Kd [4] of the same binder?
A: The Kd was 49 nM.

Q: And the koff [4]?
A: Its koff is 9.7e-05 s⁻¹.

Q: What about the kon [4] of the same binder?
A: The kon was 2040 M⁻¹ s⁻¹.

Q: What about the Kd [5] of the same binder?
A: Its Kd is 472 nM.

Q: What about the koff [5] of the same binder?
A: Its koff is 0.0002 s⁻¹.

Q: What about the kon [5] of the same binder?
A: Its kon is 419 M⁻¹ s⁻¹.

Q: With B2 as the binder, how does the “stoichiometry N” value [6] read?
A: Its value is 1.

Q: And the “stoichiometry N” value [7]?
A: Its value is 1.

Q: How did the Kd [8] turn out when B3 was run?
A: Its Kd is 31.4 nM.

Q: What about the koff [8] of the same binder?
A: The koff was 6.4e-05 s⁻¹.

Q: What about the kon [8] of the same binder?
A: The kon was 2060 M⁻¹ s⁻¹.

Q: With B4 as the binder, how does the Kd [9] read?
A: The Kd was 260 nM.

Q: And the koff [9]?
A: Its koff is 0.0001 s⁻¹.

Q: And the kon [9]?
A: The kon was 209 M⁻¹ s⁻¹.

Q: What does the source list for B5?
A: Kd [9]: 3340 nM; koff [9]: 0.00064 s⁻¹; kon [9]: 194 M⁻¹ s⁻¹

Q: Does B6 bind [10]?
A: Result: binds
